Data taken from PMC9974451, “Transportin 1 is a major nuclear import receptor of the nitric oxide synthase interacting protein” (The Journal of Biological Chemistry, 2023).
Blank lines part the entries; values can stand above or below the binder they belong to.

Assays:
Conditions in all cases: both partners purified
[1] = molecular target: RanQ69L (aa 1-180) loaded with GTP (UniProt P62826 1-180, Q69L); assay: pull-down; GST-M9 or GST-NOSIP immobilised on glutathione Sepharose beads, MBP-tagged TNPO1 FL, ΔN or ΔC, with or without RanQ69L(1-180)-GTP; Coomassie
[2] = molecular target: T1, His-S-importin β (full length) (UniProt Q14974 1-876); assay: pull-down; 100 pmol His-NOSIP-MBP (WT or K78A/K79A) or MBP immobilised on amylose beads, 100 pmol purified His-tagged NTR, with or without 300 pmol RanQ69L(1-180)-GTP, 3 h, 4 °C, TPB; SDS-PAGE, Coomassie
T1 construct: called full-length importin β (FL) in the fragment experiment; the ΔN fragment ends at aa 876; also called His-importin β; S-His-importin β
T1 sequence (Q14974 whole entry, the tested form may be a part): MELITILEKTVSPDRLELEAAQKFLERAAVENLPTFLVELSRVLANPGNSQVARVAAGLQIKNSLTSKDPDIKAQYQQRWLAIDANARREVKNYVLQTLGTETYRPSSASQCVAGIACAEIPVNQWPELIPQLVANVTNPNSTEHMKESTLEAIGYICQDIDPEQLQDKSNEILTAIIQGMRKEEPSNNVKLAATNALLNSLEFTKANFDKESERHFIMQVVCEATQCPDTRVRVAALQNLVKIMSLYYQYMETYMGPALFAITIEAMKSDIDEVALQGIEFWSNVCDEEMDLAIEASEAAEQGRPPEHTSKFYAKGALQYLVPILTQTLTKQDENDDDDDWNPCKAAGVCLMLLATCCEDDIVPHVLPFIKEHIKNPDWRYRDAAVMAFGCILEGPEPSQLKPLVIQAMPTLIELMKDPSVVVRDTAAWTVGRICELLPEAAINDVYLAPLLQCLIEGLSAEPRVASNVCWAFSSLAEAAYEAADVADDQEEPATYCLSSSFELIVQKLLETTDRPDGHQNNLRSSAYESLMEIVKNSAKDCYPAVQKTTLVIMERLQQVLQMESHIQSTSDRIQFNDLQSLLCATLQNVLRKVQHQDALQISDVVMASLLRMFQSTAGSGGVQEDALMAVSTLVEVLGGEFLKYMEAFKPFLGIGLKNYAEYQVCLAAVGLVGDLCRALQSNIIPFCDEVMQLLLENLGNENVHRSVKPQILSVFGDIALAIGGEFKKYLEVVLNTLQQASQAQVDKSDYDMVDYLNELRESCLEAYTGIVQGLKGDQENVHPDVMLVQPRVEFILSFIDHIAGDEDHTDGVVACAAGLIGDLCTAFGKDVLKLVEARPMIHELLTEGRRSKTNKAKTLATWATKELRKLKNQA

[3] = molecular target: T2, importin β ΔC (aa 1-396), His-S-tagged (UniProt Q14974 1-396); assay: pull-down; 100 pmol GST-IBB, GST-NOSIP or GST immobilised on glutathione Sepharose beads, 100 pmol His-S-tagged importin β FL, ΔN or ΔC; Western blot with anti-importin β
T2 construct: also called Imp β ΔC; N-terminal (ΔC) fragment
T2 sequence (Q14974 1-396, stated change not applied): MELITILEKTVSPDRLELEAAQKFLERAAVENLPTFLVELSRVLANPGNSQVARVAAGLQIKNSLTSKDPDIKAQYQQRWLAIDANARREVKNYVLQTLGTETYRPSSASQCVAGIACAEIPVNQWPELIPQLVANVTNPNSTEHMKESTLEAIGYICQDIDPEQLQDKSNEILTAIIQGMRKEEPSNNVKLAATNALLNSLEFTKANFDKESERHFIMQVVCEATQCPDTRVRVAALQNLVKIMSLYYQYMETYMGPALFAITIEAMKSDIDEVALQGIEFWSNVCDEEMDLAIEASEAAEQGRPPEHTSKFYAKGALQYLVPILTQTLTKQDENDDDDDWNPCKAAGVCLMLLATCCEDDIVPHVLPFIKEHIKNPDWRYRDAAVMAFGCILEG

[4] = molecular target: T1, His-S-importin β (full length); assay: as above
[5] = molecular target: T3, His-TNPO1 (transportin 1) (UniProt Q92973-2 1-890); assay: differential scanning fluorimetry; His-tagged NTR at 0.5 μM in TPB with 2 mM DTT, His-NOSIP or Ubc9 titrated in 18 steps from 0.05 to 5 μM, 5x SYPRO Orange, 25 to 90 °C; Tm plotted against concentration, exponential fit
T3 construct: transportin 1; The length 890 is printed for the MBP construct only; also called His-transportin 1
T3 sequence (looked up): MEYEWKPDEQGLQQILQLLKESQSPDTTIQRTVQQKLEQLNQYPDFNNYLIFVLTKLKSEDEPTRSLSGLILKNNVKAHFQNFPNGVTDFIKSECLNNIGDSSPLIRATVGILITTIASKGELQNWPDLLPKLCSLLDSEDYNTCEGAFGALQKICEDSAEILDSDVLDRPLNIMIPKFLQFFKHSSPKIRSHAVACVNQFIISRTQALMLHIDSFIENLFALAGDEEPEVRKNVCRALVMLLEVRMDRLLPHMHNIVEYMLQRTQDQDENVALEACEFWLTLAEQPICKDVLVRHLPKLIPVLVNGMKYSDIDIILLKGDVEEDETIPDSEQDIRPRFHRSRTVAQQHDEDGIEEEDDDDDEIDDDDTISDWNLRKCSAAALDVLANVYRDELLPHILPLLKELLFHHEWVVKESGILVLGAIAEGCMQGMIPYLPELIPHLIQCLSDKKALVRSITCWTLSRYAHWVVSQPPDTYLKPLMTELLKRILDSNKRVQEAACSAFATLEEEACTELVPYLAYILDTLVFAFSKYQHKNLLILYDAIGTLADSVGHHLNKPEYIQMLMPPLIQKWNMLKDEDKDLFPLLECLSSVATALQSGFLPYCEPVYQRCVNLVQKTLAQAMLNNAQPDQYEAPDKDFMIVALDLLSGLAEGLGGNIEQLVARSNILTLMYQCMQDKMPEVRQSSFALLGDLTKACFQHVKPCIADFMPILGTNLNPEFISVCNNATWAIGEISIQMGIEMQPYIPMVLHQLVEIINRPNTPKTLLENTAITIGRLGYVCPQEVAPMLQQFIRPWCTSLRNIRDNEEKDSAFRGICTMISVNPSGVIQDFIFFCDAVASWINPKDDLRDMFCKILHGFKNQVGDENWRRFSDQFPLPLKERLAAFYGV

His-importin 13 = molecular target: T4, His-importin 13 (UniProt O94829 1-963); assay: as above
T4 construct: importin 13; also called Imp 13; His-Imp13; source: E. coli JM109, purified (Ni-NTA agarose, size exclusion chromatography)
T4 sequence (looked up): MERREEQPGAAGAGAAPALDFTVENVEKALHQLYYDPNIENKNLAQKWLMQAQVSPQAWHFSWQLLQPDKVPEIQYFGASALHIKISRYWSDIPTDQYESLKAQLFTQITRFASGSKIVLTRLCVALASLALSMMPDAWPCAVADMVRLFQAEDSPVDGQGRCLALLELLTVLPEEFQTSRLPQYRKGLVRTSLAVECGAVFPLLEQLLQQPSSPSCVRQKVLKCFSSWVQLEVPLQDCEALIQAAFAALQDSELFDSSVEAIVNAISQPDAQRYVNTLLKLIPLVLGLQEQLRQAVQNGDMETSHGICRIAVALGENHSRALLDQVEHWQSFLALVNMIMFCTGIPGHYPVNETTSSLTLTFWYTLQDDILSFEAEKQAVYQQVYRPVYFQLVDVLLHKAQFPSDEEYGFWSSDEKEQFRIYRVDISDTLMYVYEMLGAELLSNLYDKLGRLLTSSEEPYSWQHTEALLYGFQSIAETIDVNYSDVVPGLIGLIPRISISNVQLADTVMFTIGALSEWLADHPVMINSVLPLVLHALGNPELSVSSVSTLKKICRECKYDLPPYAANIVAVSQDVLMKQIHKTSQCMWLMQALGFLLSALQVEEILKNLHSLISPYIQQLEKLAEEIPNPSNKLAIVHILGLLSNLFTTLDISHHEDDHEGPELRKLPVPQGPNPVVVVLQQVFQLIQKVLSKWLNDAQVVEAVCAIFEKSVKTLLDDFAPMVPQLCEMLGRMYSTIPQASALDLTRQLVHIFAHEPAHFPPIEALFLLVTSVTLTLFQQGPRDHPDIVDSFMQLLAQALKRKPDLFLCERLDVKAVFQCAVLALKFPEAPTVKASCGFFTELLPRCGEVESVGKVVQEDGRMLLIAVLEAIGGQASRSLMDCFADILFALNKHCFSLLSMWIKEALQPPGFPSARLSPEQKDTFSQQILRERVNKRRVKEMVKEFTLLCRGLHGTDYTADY

[6] = molecular target: T1, His-S-importin β (full length); assay: pull-down; competition: 100 pmol His-S-importin β immobilised on S-protein beads, 100 pmol His-NOSIP with 0, 100, 300, 1000 pmol His-importin α, or the other way around; Coomassie

B1: MBP-TNPO1 FL (aa 1-890) (natural protein)
chain: MEYEWKPDEQGLQQILQLLKESQSPDTTIQRTVQQKLEQLNQYPDFNNYLIFVLTKLKSEDEPTRSLSGLILKNNVKAHFQNFPNGVTDFIKSECLNNIGDSSPLIRATVGILITTIASKGELQNWPDLLPKLCSLLDSEDYNTCEGAFGALQKICEDSAEILDSDVLDRPLNIMIPKFLQFFKHSSPKIRSHAVACVNQFIISRTQALMLHIDSFIENLFALAGDEEPEVRKNVCRALVMLLEVRMDRLLPHMHNIVEYMLQRTQDQDENVALEACEFWLTLAEQPICKDVLVRHLPKLIPVLVNGMKYSDIDIILLKGDVEEDETIPDSEQDIRPRFHRSRTVAQQHDEDGIEEEDDDDDEIDDDDTISDWNLRKCSAAALDVLANVYRDELLPHILPLLKELLFHHEWVVKESGILVLGAIAEGCMQGMIPYLPELIPHLIQCLSDKKALVRSITCWTLSRYAHWVVSQPPDTYLKPLMTELLKRILDSNKRVQEAACSAFATLEEEACTELVPYLAYILDTLVFAFSKYQHKNLLILYDAIGTLADSVGHHLNKPEYIQMLMPPLIQKWNMLKDEDKDLFPLLECLSSVATALQSGFLPYCEPVYQRCVNLVQKTLAQAMLNNAQPDQYEAPDKDFMIVALDLLSGLAEGLGGNIEQLVARSNILTLMYQCMQDKMPEVRQSSFALLGDLTKACFQHVKPCIADFMPILGTNLNPEFISVCNNATWAIGEISIQMGIEMQPYIPMVLHQLVEIINRPNTPKTLLENTAITIGRLGYVCPQEVAPMLQQFIRPWCTSLRNIRDNEEKDSAFRGICTMISVNPSGVIQDFIFFCDAVASWINPKDDLRDMFCKILHGFKNQVGDENWRRFSDQFPLPLKERLAAFYGV
notes: transportin 1, full length printed as aa 1-890 (890 residues); also called full-length TNPO1; source: E. coli BL21DE3, purified (amylose resin, size exclusion chromatography)
binding result [1]: binds

B4: His-NOSIP (natural protein, UniProt Q9Y314 1-301, looked up)
chain: MTRHGKNCTAGAVYTYHEKKKDTAASGYGTQNIRLSRDAVKDFDCCCLSLQPCHDPVVTPDGYLYEREAILEYILHQKKEIARQMKAYEKQRGTRREEQKELQRAASQDHVRGFLEKESAIVSRPLNPFTAKALSGTSPDDVQPGPSVGPPSKDKDKVLPSFWIPSLTPEAKATKLEKPSRTVTCPMSGKPLRMSDLTPVHFTPLDSSVDRVGLITRSERYVCAVTRDSLSNATPCAVLRPSGAVVTLECVEKLIRKDMVDPVTGDKLTDRDIIVLQRGGTGFAGSGVKLQAEKSRPVMQA
notes: Lacks the MBP tag; source: E. coli JM109, purified (Ni-NTA agarose, size exclusion chromatography)
Kd [5]: 233 ± 60 nM
Kd (His-importin 13): 417 ± 100 nM
binding result [6]: binds

Results, then the binder that gave them:

binding result [2]: binds
B2: His-NOSIP-MBP (nitric oxide synthase interacting protein) (natural protein, UniProt Q9Y314 1-301, looked up)
chain: MTRHGKNCTAGAVYTYHEKKKDTAASGYGTQNIRLSRDAVKDFDCCCLSLQPCHDPVVTPDGYLYEREAILEYILHQKKEIARQMKAYEKQRGTRREEQKELQRAASQDHVRGFLEKESAIVSRPLNPFTAKALSGTSPDDVQPGPSVGPPSKDKDKVLPSFWIPSLTPEAKATKLEKPSRTVTCPMSGKPLRMSDLTPVHFTPLDSSVDRVGLITRSERYVCAVTRDSLSNATPCAVLRPSGAVVTLECVEKLIRKDMVDPVTGDKLTDRDIIVLQRGGTGFAGSGVKLQAEKSRPVMQA
notes: Name is printed in the order His-NOSIP-MBP; also called wildtype (WT) His-NOSIP-MBP; immobilized NOSIP; source: E. coli JM109, purified (Ni-NTA agarose, amylose resin, dialysis)

binding result [3]: binds
binding result [4]: binds
B3: GST-NOSIP (natural protein, UniProt Q9Y314 1-301, looked up)
chain: MTRHGKNCTAGAVYTYHEKKKDTAASGYGTQNIRLSRDAVKDFDCCCLSLQPCHDPVVTPDGYLYEREAILEYILHQKKEIARQMKAYEKQRGTRREEQKELQRAASQDHVRGFLEKESAIVSRPLNPFTAKALSGTSPDDVQPGPSVGPPSKDKDKVLPSFWIPSLTPEAKATKLEKPSRTVTCPMSGKPLRMSDLTPVHFTPLDSSVDRVGLITRSERYVCAVTRDSLSNATPCAVLRPSGAVVTLECVEKLIRKDMVDPVTGDKLTDRDIIVLQRGGTGFAGSGVKLQAEKSRPVMQA
notes: also called immobilized GST-NOSIP; source: E. coli JM109, purified (glutathione Sepharose, size exclusion chromatography)
